doi:10.64898/2025.12.22.695782
Where two headings read alike, the source gives them in different places.

Experiments:
Test in all cases: NMR HSQC titration
TDP-43 CTD WT [1] = target: T1, TDP-43 CTD WT (Homo sapiens, UniProt Q13148 267-414)
TDP-43 CTD WT [2] = target: T1, TDP-43 CTD WT; remark: listed apart in the source
TDP-43 CTD WT [3] = target: T1, TDP-43 CTD WT; remark: listed apart in the source
TDP-43 CTD WT [4] = target: T1, TDP-43 CTD WT; remark: listed apart in the source
TDP-43 CTD WT [5] = target: T1, TDP-43 CTD WT; remark: listed apart in the source
TDP-43 CTD WT [6] = target: T1, TDP-43 CTD WT; remark: listed apart in the source
TDP-43 CTD WT [7] = target: T1, TDP-43 CTD WT; remark: listed apart in the source

T1 sequence (Q13148 267-414): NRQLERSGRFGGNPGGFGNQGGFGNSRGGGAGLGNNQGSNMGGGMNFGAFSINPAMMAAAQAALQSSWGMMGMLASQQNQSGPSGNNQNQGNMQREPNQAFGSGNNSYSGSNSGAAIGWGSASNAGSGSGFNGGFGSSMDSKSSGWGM

Binder: AAAAAAAAAAAA (ssDNA) [dA12]
- binding result (TDP-43 CTD WT [1]): binds

Binder: CCCCCCCCCCCC (structured_DNA) [dC12]
- binding result (TDP-43 CTD WT [2]): binds

Binder: GCTTATGGGGAGGGTGGGGAGGGTGGGGAAGGTG (structured_DNA) [c-Myc G4]
- binding result (TDP-43 CTD WT [3]): binds

Binder: CACCTTCCCCACCCTCCCCACCCTCCCCATAAGC (structured_DNA) [c-Myc I-motif]
- binding result (TDP-43 CTD WT [4]): binds

Binder: UUUUUUUUUUUU (ssDNA, deoxyuridine (DNA backbone) throughout) [dU12]
- binding result (TDP-43 CTD WT [5]): binds

Binder: GGGGGGGGGGGG (structured_DNA) [dG12]
- binding result (TDP-43 CTD WT [2]): binds

Binder: TTTTTTTTTTTT (ssDNA) [dT12]
- binding result (TDP-43 CTD WT [6]): binds

Binder: TGTGTGTGTGTGTGTGTGTGTGTGTGTGTGTGTG (ssDNA) [(TG)17]
- binding result (TDP-43 CTD WT [7]): binds
